Patent US20260174822A1

Target: GLP-1R on GeneBLAzer GLP-1R-CRE-bla CHO-K1 cells
Test: cell-based or functional assay

GLP-1-His protein (peptide)
EC50 of GLP-1R activation (460/530 ratio, GeneBLAzer GLP-1R-CRE-bla CHO-K1 reporter cells): 192 nM

GLP-1-RFRS-His protein (peptide)
EC50 of GLP-1R activation (460/530 ratio, GeneBLAzer GLP-1R-CRE-bla CHO-K1 reporter cells): 35.9 nM
